The values below come from patent publication US20180305438A1 (ACCELERON PHARMA, published 2018).

Broadly, the Kd is the constant that tells how readily two partners part at equilibrium. Read a low Kd as tighter binding.

Holding throughout (test): Biacore (SPR)
(In general: Surface plasmon resonance follows binding to a sensor surface in real time, without labels.)

One test deals with T1, hBMP7 (human, UniProt P18075 293-431).
T1 sequence (looked up): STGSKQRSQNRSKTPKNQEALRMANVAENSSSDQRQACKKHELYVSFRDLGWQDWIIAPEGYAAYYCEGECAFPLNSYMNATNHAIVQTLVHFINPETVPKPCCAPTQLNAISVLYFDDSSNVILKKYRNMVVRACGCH

In another test the target is T2, hBMP4 (human, UniProt P12644 293-408).
T2 sequence (looked up): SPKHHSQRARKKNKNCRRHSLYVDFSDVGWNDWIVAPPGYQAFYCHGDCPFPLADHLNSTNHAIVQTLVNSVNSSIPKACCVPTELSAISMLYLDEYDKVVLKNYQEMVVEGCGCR

Another test deals with hBMP2 (human, UniProt P12643 283-396).
Sequence of hBMP2 (P12643 283-396 limits assumed): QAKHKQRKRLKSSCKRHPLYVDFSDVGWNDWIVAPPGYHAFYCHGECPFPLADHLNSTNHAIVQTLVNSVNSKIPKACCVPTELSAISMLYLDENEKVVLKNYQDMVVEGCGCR

B1: mALK3(24-152)-mFc derived from HEK 293 cells (Fc fusion)
chain: GAQNLDSMLHGTGMKSDLDQKKPENGVTLAPEDTLPFLKCYCSGHCPDDAINNTCITNGHCFAIIEEDDQGETTLTSGCMKYEGSDFQCKDSPKAQLRRTIECCRTNLCNQYLQPTLPPVVIGPFFDGSIRTGGGEPRVPITQNPCPPLKECPPCAAPDLLGGPSVFIFPPKIKDVLMISLSPMVTCVVVDVSEDDPDVQISWFVNNVEVHTAQTQTHREDYNSTLRVVSALPIQHQDWMSGKEFKCKVNNRALPSPIEKTISKPRGPVRAPQVYVLPPPAEEMTKKEFSLTCMITGFLPAEIAVDWTSNGRTEQNYKNTATVLDSDGSYFMYSKLRVQKSTWERGSLFACSVVHEGLHNHLTTKTISRSLGK
notes: The Gly-Ala at 23-24 may also be absent, since the main species of the human construct starts at Gln; also called mALK3-mFc
Regarding B1, the binding result with hBMP7 is “binds”. Besides, the Kd with hBMP4 worked out at 0.947 nM; with hBMP2, 2.43 nM.
